Data reported in US6534629B1, “Nematode-extracted serine protease inhibitors and anticoagulant proteins” (priority 1994, dated 2003).
Read-outs that look alike come from different tables or passages of the source. Marks after values point to notes of the source that are not given here.

How the values were obtained:
[1] = system: FeCl3-induced platelet-dependent arterial thrombosis; assay: Rat model of FeCl3-induced platelet-dependent arterial thrombosis, intravenous administration; format: in vivo; conditions: dose that prevents complete thrombotic occlusion in 50% of animals
Experimental: The antithrombotic (prevention of thrombus formation) properties of NAP were evaluated using the established experimental rat model of acute vascular thrombosis.
The rat FeCl3 model is a well characterized model of platelet dependent, arterial thrombosis which has been used to evaluate potential antithrombotic compounds. Kurz, K. D., Main, B. W., and Sandusky, G. E., Thromb. Res., 60: 269-280 (1990). In this model a platelet-rich, occlusive thrombus is formed in a segment of the rat carotid artery treated locally with a fresh solution of FeCl3 absorbed to a piece of filter paper. The FeCl3 is thought to diffuse into the treated segment of artery and cause de-endothelialization of the affected vessel surface. […] The net result is occlusive thrombus formation. The effect of a test compound on the incidence of occlusive thrombus formation following application of FeCl3 is monitored by ultrasonic flowtometry and is used as the primary end point. […]
Following surgery the animals were randomized in either a control (saline) or treatment (recombinant AcaNAP5) group. […] Blood pressure, blood flow, heart rate, and respiration were monitored for 60 minutes. The incidence of occlusion (defined as the attainment of zero blood flow) was recorded as the primary end point.

[2] = system: normal citrated human plasma; assay: Activated partial thromboplastin time (aPTT) assay; format: biochemical; conditions: concentration that doubled the control clotting time (28.5 seconds) of normal human plasma
Experimental: (§1) The ex vivo anticoagulant effects of NAPs of the present invention in human plasma were evaluated by measuring the prolongation of the activated partial thromboplastin time (aPTT) and prothrombin time (PT) over a broad concentration range of each inhibitor.
(§2) Fresh frozen pooled normal citrated human plasma was obtained from George King Biomedical, Overland Park, Kans. Respective measurements of aPTT and PT were made using the Coag-A-Mate RA4 automated coagulometer (General Diagnostics, Organon Technica, Oklahoma City, Okla.) using the Automated aPTT Platelin® reagent (Organon Technica, Durham, N.C.) and Simplastin® Excel (Organon Technica, Durham, N.C.) respectively, as initiators of clotting according to the manufacturer's instructions.
(§3) The assays were conducted by making a series of dilutions of each tested NAP in rapidly thawed plasma followed by adding 200 microliters or 100 microliters of the above referenced reagents to the wells of the assay carousel for the aPTT or PT measurements, respectively. Alternatively, the NAPs were serially diluted into HBSA and 10 μl of each dilution were added to 100 μl of normal human plasma in the wells of the Coag-A-Mate assay carousel, followed by addition of reagent.
(§4) Concentrations of NAP were plotted against clotting time, and a doubling time concentration was calculated, i.e., a specified concentration of NAP that doubled the control clotting time of either the PT or the aPTT.

[3] = system: normal citrated human plasma; assay: Prothrombin time (PT) assay; format: biochemical; conditions: for Doubling Concentration (nM) in the PT: concentration that doubled the control clotting time (12.1 seconds) of normal human plasma; for coagulation time of human plasma (Prothrombin Time Assay), in words: P. pastoris culture supernatant / growth media
Experimental: as §1, §2, §3
as §4, with “aPTT. The control clotting times (absence of NAP) in the PT and APTT were 12.1 seconds and 28.5 seconds, respectively.” for “aPTT.”

[4] = target: human rFVIIa/rTF/PLV complex; assay: Factor VIIa/Tissue factor amidolytic assay; format: biochemical
Experimental: Lyophilized, purified, recombinant human factor VIIa was obtained from BiosPacific, Inc. (Emeryville, Calif.), and reconstituted in HBS (10 mM HEPES, pH 7.5, 150 mM sodium chloride) prior to use. Purified human Factor X was obtained from Enzyme Research Laboratories, Inc. (South Bend, Ind.) and Factor Xa (free FXa) was activated and prepared from Factor X as described (Bock, P. E., Craig, P. A., Olson, S. T., and Singh, P. Arch. Biochem. Biophys. 273: 375-388 (1989)). Active site-blocked human Factor Xa (EGR-FXa), which had been irreversibly inactivated with L-Glutamyl-L-glycyl-L-arginyl chloromethylketone, was obtained from Haematologic Technologies, Inc. (Essex Junction, Vt.). Recombinant human tissue factor (rTF) was produced by a baculovirus-expression system, and purified to homogeneity by monoclonal antibody affinity chromatography (Corvas International, Inc., San Diego, Calif.).
The purified rTF apoprotein was incorporated into phospholipid vesicles (rTF/PLV), consisting of phosphotidyl choline (75%, w/v) and phosphotidyl serine (25%, w/v) in the presence of detergent, as described by Ruf et al. (Ruf, W., Miles, D. J., Rehemtulla, A., and Edgington, T. S. Methods in Enzymology 222: 209-224 (1993)). The phospholipids were purchased from Avanti Polar Lipids, (Alabaster, Ala.). The buffer used for all assays was HBSA, HBS containing 0.1% (w/v) bovine serum albumin. All reagents were obtained from Sigma Chemical Cb. (St. Louis, Mo.), unless otherwise indicated.
rFVIIa/rTF amidolytic activity was determined using the chromogenic substrate S-2288 (H-D-isoleucyl-L-prolyl-L-arginine-p-nitroaniline), obtained from Kabi Pharmacia Hepar, Inc. (Franklin, Ohio). The substrate was reconstituted in deionized water prior to use. rFVIIa and rTF/PLV were combined in a polypropylene test tube, and allowed to form a complex for 10 min in HBSA, containing 3 mM CaCl2. […] Following an incubation of 30 min at ambient temperature, the triplicate reactions were initiated by adding 50 μL of S-2288.
The amidolytic activity of rFVIIa/rTF/PLV was measured as a linear increase in the absorbance at 405 nm over 10 min (velocity), using a Thermo Max® Kinetic Microplate Reader (Molecular Devices, Palo Alto, Calif.), under steady-state conditions, where less than 5% of the substrate was consumed. Ratios of inhibited pre-equilibrium, steady-state velocities (Vi), in the presence of NAP, to the uninhibited velocity in the presence of free fXa alone (Vo) were plotted against the corresponding concentrations of NAP.

[5] = system: acute coronary artery thrombosis; assay: Pig model of acute coronary artery thrombosis; format: in vivo; conditions: for Time of Occulsion: non-occluded vessels assigned 240 minutes
Text: The protocol used in these studies is a modification of a thrombosis model which has been reported previously (Lucchesi, B. R., et al., (1994), Brit. J. Pharmacol. 113: 1333-1343).
Animals were anesthetized and instrumented with arterial and venous catheters (left common carotid and external jugular, respectively). A thoracotomy was made in the 4th intercostal space and the heart was exposed. The left anterior descending (LAD) coronary artery was isolated from the overlying connective tissue and was instrumented with a Doppler flow probe and a 17 gauge ligature stenosis. An anodal electrode also was implanted inside the vessel.
Baseline measurements were taken and the NAP or placebo to be tested was administered via the external jugular vein. Five minutes after administration, a direct current (300 μA, DC) was applied to the stimulating electrode to initiate intimal damage to the coronary endothelium and begin thrombus formation. Current continued for a period of 3 hours. Animals were observed until either 1 hour after the cessation of current or the death of the animal, whichever came first.
The incidence of occlusion in the animals receiving placebo was 8/8 (100%). Time to occlusion in placebo treated animals was 66.6±7.5 min. (mean±sem).

[6] = No FXa Addition, read-out: Ki* (pM) Amidolytic Assay, No FXa Addition

Which ED50 ([1]; read-out: ED50) does the source give for CC1CNc2c(cccc2S(=O)(=O)N[C@@H](CCCNC(=N)N)C(=O)N2CC[C@@H](C)C[C@@H]2C(=O)O)C1 (some centres unmarked) [Argatroban] here?
The ED50 was 3.8 mg/kg.

Which ED50 [1] does the source give for “rTAP: recombinant Tick Anticoagulant Peptide, 60 amino acid factor Xa inhibitor from Ornithodoros moubata (YNRLCIKPRDWIDECDSNEGGERAYFRNGKGGCDSFWICPEDHTGADYYSSYRDCFNACI; UniProt P17726 1-60, looked up)” here?
Its ED50 is 0.6 mg/kg.

B1: Pro-AcaNAP5: AcaNAP5 with four additional N-terminal amino acids, SEQ. ID. NO. 7, made in COS cells (protein)
chain: RTVRKAYPECGENEWLDDCGTQKPCEAKCNEEPPEEEDPICRSRGCLLPPACVCKDGFYRDTVIGDCVREEECDQHEIIHV
B1 was tested. Which “Doubling Concentration (nM) in the aPTT” value [2] did it give?
Its value is 31.0 nM.

What about the “Doubling Concentration (nM) in the PT” value [3] of the same molecule?
The value was 21.9 nM.

B2: AcaNAPc2: NAP of Ancylostoma caninum isolated by phage display, SEQ. ID. NO. 59; fVIIa/TF inhibitor (protein)
chain: KATMQCGENEKYDSCGSKECDKKCKYDGVEEEDDEEPNVPCLVRVCHQDCVCEEGFYRNKDDKCVSAEDCELDNMDFIYPGTRN
Which Ki [4, 6] does the source give for B2 here?
Its Ki is over 1500 pM.

What about the “Doubling Concentration (nM) in the PT” value [3] of the same molecule?
Its value is 15 ± 1 nM.

B3: AceNAP4: NAP of Ancylostoma ceylanicum with two NAP domains, SEQ. ID. NO. 62 (protein)
chain: KPNNVMTNACGLNEYFAECGNMKECEHRCNEEENEERDEERITACLIRVCFRPGACVCKDGFYRNRTGSCVEEDDCEYENMEFITFAPEVPICGSNERYSDCGNDKQCERKCNEDDYEKGDEACRSHVCERPGACVCEDGFYRNKKGSCVESDDCEYDNMDFITFAPETSR
Which results are given for B3?
Doubling Concentration (nM) in the aPTT [2]: 115 ± 12 nM; Doubling Concentration (nM) in the PT [3]: 40 ± 4 nM

B4: AcaNAP42: NAP of Ancylostoma caninum, SEQ. ID. NO. 47; AcaNAP31, 42 and 46 encode identical proteins (protein)
chain: KSLWDQKCGENERLDCGNQKDCERKCDDKRSEEEIMQACLTRQCLPPVCVCEDGFYRNDNDQCVDEEECNMEFITFAP
B4 was tested. Which “coagulation time of human plasma (Prothrombin Time Assay), in words” value [3] did it give?
The value was “prolongation of the coagulation time of human plasma”.

B5: AcaNAP6: NAP of Ancylostoma caninum, SEQ. ID. NO. 6; recombinant, made in Pichia pastoris (protein)
chain: KAYPECGENEWLDVCGTKKPCEAKCSEEEEEDPICRSFSCPGPAACVCEDGFYRDTVIGDCVKEEECDQHEIIHV
How did the “Doubling Concentration (nM) in the aPTT” value [2] turn out when B5 was run?
Its value is 62 ± 0 nM.

What about the Ki [4, 6] of the same molecule?
Its Ki is over 1500 pM.

And the Ki ([4]; Plus EGR-FXa (2.5 nM), read-out: Ki* (pM) Amidolytic Assay, Plus EGR-FXa)?
Its Ki is over 1500 pM.

What about the “Doubling Concentration (nM) in the PT” value [3] of the same molecule?
Its value is 37 ± 3 nM.

B6: AcaNAPc2P: AcaNAPc2 with an additional proline residue at the C-terminus (protein)
chain: KATMQCGENEKYDSCGSKECDKKCKYDGVEEEDDEEPNVPCLVRVCHQDCVCEEGFYRNKDDKCVSAEDCELDNMDFIYPGTRNP
What does the source list for B6?
Incidence of Occlusion ([5]; 0.01 mg/kg i.v.): 6/6; Total Blood Loss ([5]; 0.01 mg/kg i.v.): 1.6 ± 0.3 mL; Time of Occulsion ([5]; 0.01 mg/kg i.v.): 105 ± 6.2 min; Incidence of Occlusion ([5]; 0.03 mg/kg i.v.): 4/6; Total Blood Loss ([5]; 0.03 mg/kg i.v.): 4.9 ± 1.4 mL; bleeding, in words ([5]; 0.03 mg/kg i.v.): did not produce significant elevations in bleeding; time to occlusion, in words ([5]; 0.03 mg/kg i.v.): significantly prolonged; Time of Occulsion ([5]; 0.03 mg/kg i.v.): 159 ± 27 min; Incidence of Occlusion ([5]; 0.10 mg/kg i.v.): 2/6†; Total Blood Loss ([5]; 0.10 mg/kg i.v.): 17.6 ± 7.9 mL; Time of Occulsion ([5]; 0.10 mg/kg i.v.): 215 ± 25 min; in vitro activity in inhibitory assays of rFVIIa/rTF activity, compared with AcaNAPc2 [4]: substantially the same as AcaNAPc2; coagulation time of human plasma (Prothrombin Time Assay), in words [3]: prolongation of the coagulation time of human plasma
